Measured values: PMC7954794, “Protein context shapes the specificity of SH3 domain-mediated interactions in vivo” (Nature Communications, 2021)

Test system: PPIs identified as affected by the SH3 domain deletions
Experiment: Liquid DHFR-PCA low-throughput validation of PPIs affected by SH3 deletion (Fig. S1D-E)
Assay type: cell-based, Saccharomyces cerevisiae
Details: label = prey, liquid DHFR-PCA, prey _1 = lost, _2 = gained in screen
Procedure, shortened: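 Yeast diploids from DHFR-PCA mating grown 48 h in synthetic complete MSG medium pH 6.0 with NAT and HPH, normalized to 1 OD and diluted to 0.1 OD in liquid PCA selection medium. Growth followed by OD every 15 min for 72 h at 30 °C.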

B1: YLR330W_2 (protein, UniProt Q12114 1-671, looked up)
Chitin biosynthesis protein …: MSSVDVLLTVGKLDASLALLTTQDHHVIEFPTVLLPENVKAGSIIKMQVSQNLEEEKKQRNHFKSIQAKILEKYGTHKPESPVLKIVNVTQTSCVLAWDPLKLGSAKLKSLILYRKGIRSMVIPNPFKVTTTKISGLSVDTPYEFQLKLITTSGTLWSEKVILRTHKMTDMSGITVCLGPLDPLKEISDLQISQCLSHIGARPLQRHVAIDTTHFVCNDLDNEESNEELIRAKHNNIPIVRPEWVRACEVEKRIVGVRGFYLDADQSILKNYTFPPVNEEELSYSKENEPVAEVADENKMPEDTTDVEQVASPNDNESNPSEAKEQGEKSGHETAPVSPVEDPLHASTALENETTIETVNPSVRSLKSEPVGTPNIEENKADSSAEAVVEEPNEAVAESSPNEEATGQKSEDTDTHSNEQADNGFVQTEEVAENNITTESAGENNEPADDAAMEFGRPEAEIETPEVNESIEDANEPAEDSNEPVEDSNKPVKDSNKPVEDSNKPVEDSNKPVEDSNKPVEDANEPVEDTSEPVEDAGEPVQETNEFTTDIASPRHQEEDIELEAEPKDATESVAVEPSNEDVKPEEKGSEAEDDINNVSKEAASGESTTHQKTEASASLESSAVTEEQETTEAEVNTDDVLSTKEAKKNTGNSNSNKKKNKKNKKKGKKK
B1 was tested, and the “Ratio (Deletedscore / WTscore)” value (bait LSB3) was 1.34.

B2: YDL225W_2 (protein, UniProt Q07657 2-551, looked up)
Seventh homolog of septin 1: STASTPPINLFRRKKEHKRGITYTMLLCGPAGTGKTAFANNLLETKIFPHKYQYGKSNASISSNPEVKVIAPTKVVSFNSKNGIPSYVSEFDPMRANLEPGITITSTSLELGGNKDQGKPEMNEDDTVFFNLIMTHGIGENLDDSLCSEEVMSYLEQQFDIVLAEETRIKRNPRFEDTRVHVALYFIEPTGHGLREVDVELMKSISKYTNVLPIITRADSFTKEELTQFRKNIMFDVERYNVPIYKFEVDPEDDDLESMEENQALASLQPFAIITSDTRDSEGRYVREYPWGIISIDDDKISDLKVLKNVLFGSHLQEFKDTTQNLLYENYRSEKLSSVANAEEIGPNSTKRQSNAPSLSNFASLISTGQFNSSQTLANNLRADTPRNQVSGNFKENEYEDNGEHDSAENEQEMSPVRQLGREIKQENENLIRSIKTESSPKFLNSPDLPERTKLRNISETVPYVLRHERILARQQKLEELEAQSAKELQKRIQELERKAHELKLREKLINQNKLNGSSSSINSLQQSTRSQIKKNDTYTDLASIASGRD
For B2, the “Ratio (Deletedscore / WTscore)” value (bait BZZ1-2) was 1.566 and the “Ratio (Deletedscore / WTscore)” value (bait HOF1) was 1.663.

B3: YLR196W_2 (protein, UniProt P21304 1-576, looked up)
Periodic tryptophan protein 1: MISATNWVPRGFSSEFPEKYVLDDEEVERINQLAQLNLDDAKATLEEAEGESGVEDDAATGSSNKLKDQLDIDDDLKEYNLEEYDDEEIADNEGGKDVSMFPGLSNDSDVKFHEGEKGEDPYISLPNQEDSQEEKQELQVYPSDNLVLAARTEDDVSYLDIYVYDDGAGFHSSDIPVEEGDEADPDVARGLVRDPALYVHHDLMLPAFPLCVEWLDYKVGSNSEEAANYAAIGTFDPQIEIWNLDCVDKAFPDMILGEPLDNSMVSLKSKKKKKKSKTGHITTHHTDAVLSMAHNKYFRSVLASTSADHTVKLWDLNSGNAARSLASIHSNKNVSSSEWHMLNGSILLTGGYDSRVALTDVRISDESQMSKYWSAMAGEEIETVTFASENIILCGTDSGNVYSFDIRNNENRKPVWTLKAHDAGISTLCSNKFIPGMMSTGAMGEKTVKLWKFPLDDATNTKGPSMVLSRDFDVGNVLTSSFAPDIEVAGTMVIGGVNKVLKLWDVFTNRSVRKSFKSELENVQARAKEEAQKIGKSSRIARKYTSNDNPDTVITIDDQGEDEEEREGGDEHDDMA
With B3 the “Ratio (Deletedscore / WTscore)” value (bait LSB3) was 1.184.

B4: YFR040W_2 (protein, UniProt P43612 1-1002, looked up)
SIT4-associating protein …: MSFWPFGQNLNHSNINKILDEYFHVLHELERINPSVGKAIPAIFNNVQERGTSDSLDSIPEEYSHGDEVKTARGDQKSRFEKDDQQERYEKEEEERSMNSSESSTTSFSSGSTSKTDLDEEDISNATAPMMVTTKNLDNSFIERMLVETELLNELSRQNKTLLDFICFGFFFDKKTNKKVNNMEYLVDQLMECISKIKTATTVDLNNLIDYQEQQQLDDSSQEDVYVESDTEQEEEKEDDNNSNNKKRRKRGSSSFGNDDINNNDDDDDANEDDESAYLTKATIISEIFSLDIWLISESLVKNQSYLNKIWSIINQPNFNSENSPLVPIFLKINQNLLLTRQDQYLNFIRTERSFVDDMLKHVDISLLMDFFLKIISTDKIESPTGIIELVYDQNLISKCLSFLNNKESPADIQACVGDFLKALIAISANAPLDDISIGPNSLTRQLASPESIAKLVDIMINQRGAALNTTVSIVIELIRKNNSDYDQVNLLTTTIKTHPPSNRDPIYLGYLLRKFSNHLSDFFQIILDIENDANIPLHENQLHEKFKPLGFERFKVVELIAELLHCSNMGLMNSKRAERIARRRDKVRSQLSHHLQDALNDLSIEEKEQLKTKHSPTRDTDHDLKNNNGKIDNDNNDNDDESDYGDEIDESFEIPYINMKQNIKLRTDPTVGDLFKIKLYDTRIVSKIMELFLTHPWNNFWHNVIFDIIQQIFNGRMDFSYNSFLVLSLFNLKSSYQFMTDIVISDEKGTDVSRFSPVIRDPNFDFKITTDFILRGYQDSYKFYELRKMNLGYMGHIVLIAEEVVKFSKLYKVELISPDIQVILQTEEWQYYSEEVLNETRMMYSKILGGGSYIDDGNGNIIPQLPDNTTVLTPNGDASNNNEILDSDTGSSNGTSGGGQLINVESLEEQLSLSTESDLHNKLREMLINRAQEDVDNKNTENGVFILGPPEDKNSNSNINNTNHNSNNSNNNDNNDNNDNDNDNTRNYNEDADNDNDYDHE
For B4, the “Ratio (Deletedscore / WTscore)” value (bait LSB3) was 1.731.

B5: YBL071W-A_2 (protein, UniProt Q3E840 1-82, looked up)
Diphthamide biosynthesis …: MSTYDEIEIEDMTFEPENQMFTYPCPCGDRFQIYLDDMFEGEKVAVCPSCSLMIDVVFDKEDLAEYYEEAGIHPPEPIAAAA
In the case of B5, the “Ratio (Deletedscore / WTscore)” value (bait ABP1) is reported as 1.188.

B6: YML035C_2 (protein, UniProt P15274 1-810, looked up)
AMP deaminase: MDNQATQRLNDLSLEPAPSHDEQDGSGLVIDIDQRKIGDEQAGVVVDDETPPLEQQDSHESLAADSRNANFSYHENQQLLENGTKQLALDEHDSHSAILEQPSHSTNCSSSNIAAMNKGHDSADHASQNSGGKPRTLSASAQHILPETLKSFAGAPVVNKQVRTSASYKMGMLADDASQQFLDDPSSELIDLYSKVAECRNLRAKYQTISVQNDDQNPKNKPGWVVYPPPPKPSYNSDTKTVVPVTNKPDAEVFDFTKCEIPGEDPDWEFTLNDDDSYVVHRSGKTDELIAQIPTLRDYYLDLEKMISISSDGPAKSFAYRRLQYLEARWNLYYLLNEYQETSVSKRNPHRDFYNVRKVDTHVHHSACMNQKHLLRFIKHKLRHSKDEKVIFRDGKLLTLDEVFRSLHLTGYDLSIDTLDMHAHKDTFHRFDKFNLKYNPIGESRLREIFLKTNNYIKGTYLADITKQVIFDLENSKYQNCEYRISVYGRSLDEWDKLASWVIDNKVISHNVRWLVQIPRLYDIYKKTGIVQSFQDICKNLFQPLFEVTKNPQSHPKLHVFLQRVIGFDSVDDESKVDRRFHRKYPKPSLWEAPQNPPYSYYLYYLYSNVASLNQWRAKRGFNTLVLRPHCGEAGDPEHLVSAYLLAHGISHGILLRKVPFVQYLYYLDQVGIAMSPLSNNALFLTYDKNPFPRYFKRGLNVSLSTDDPLQFSYTREPLIEEYSVAAQIYKLSNVDMCELARNSVLQSGWEAQIKKHWIGKDFDKSGVEGNDVVRTNVPDIRINYRYDTLSTELELVNHFANFKRTIEEK
For B6, the “Ratio (Deletedscore / WTscore)” value (bait HSE1) was 1.186 and the “Ratio (Deletedscore / WTscore)” value (bait LSB3) was 1.062.

B7: YIL033C_2 (protein, UniProt P07278 2-416, looked up)
cAMP-dependent protein kinase …: VSSLPKESQAELQLFQNEINAANPSDFLQFSANYFNKRLEQQRAFLKAREPEFKAKNIVLFPEPEESFSRPQSAQSQSRSRSSVMFKSPFVNEDPHSNVFKSGFNLDPHEQDTHQQAQEEQQHTREKTSTPPLPMHFNAQRRTSVSGETLQPNNFDDWTPDHYKEKSEQQLQRLEKSIRNNFLFNKLDSDSKRLVINCLEEKSVPKGATIIKQGDQGDYFYVVEKGTVDFYVNDNKVNSSGPGSSFGELALMYNSPRAATVVATSDCLLWALDRLTFRKILLGSSFKKRLMYDDLLKSMPVLKSLTTYDRAKLADALDTKIYQPGETIIREGDQGENFYLIEYGAVDVSKKGQGVINKLKDHDYFGEVALLNDLPRQATVTATKRTKVATLGKSGFQRLLGPAVDVLKLNDPTRH
For B7, the “Ratio (Deletedscore / WTscore)” value (bait CYK3) was 1.015.

B8: YBR177C_2 (protein, UniProt P38295 1-451, looked up)
Medium-chain fatty acid ethyl …: MSEVSKWPAINPFHWGYNGTVSHIVGENGSIKLHLKDNKEQVDFDEFANKYVPTLKNGAQFKLSPYLFTGILQTLYLGAADFSKKFPVFYGREIVKFSDGGVCTADWLIDSWKKDYEFDQSTTSFDKKKFDKDEKATHPEGWPRLQPRTRYLKDNELEELREVDLPLVVILHGLAGGSHEPIIRSLAENLSRSGRFQVVVLNTRGCARSKITTRNLFTAYHTMDIREFLQREKQRHPDRKLYAVGCSFGATMLANYLGEEGDKSPLSAAATLCNPWDLLLSAIRMSQDWWSRTLFSKNIAQFLTRTVQVNMGELGVPNGSLPDHPPTVKNPSFYMFTPENLIKAKSFKSTREFDEVYTAPALGFPNAMEYYKAASSINRVDTIRVPTLVINSRDDPVVGPDQPYSIVEKNPRILYCRTDLGGHLAYLDKDNNSWATKAIAEFFTKFDELVV
For B8, the “Ratio (Deletedscore / WTscore)” value (bait LSB3) was 1.519.

B9: YHR064C_2 (protein, UniProt P38788 1-538, looked up)
Ribosome-associated complex …: MSSPVIGITFGNTSSSIAYINPKNDVDVIANPDGERAIPSALSYVGEDEYHGGQALQQLIRNPKNTIINFRDFIGLPFDKCDVSKCANGAPAVEVDGKVGFVISRGEGKEEKLTVDEVVSRHLNRLKLAAEDYIGSAVKEAVLTVPTNFSEEQKTALKASAAKIGLQIVQFINEPSAALLAHAEQFPFEKDVNVVVADFGGIRSDAAVIAVRNGIFTILATAHDLSLGGDNLDTELVEYFASEFQKKYQANPRKNARSLAKLKANSSITKKTLSNATSATISIDSLADGFDYHASINRMRYELVANKVFAQFSSFVDSVIAKAELDPLDIDAVLLTGGVSFTPKLTTNLEYTLPESVEILGPQNKNASNNPNELAASGAALQARLISDYDADELAEALQPVIVNTPHLKKPIGLIGAKGEFHPVLLAETSFPVQKKLTLKQAKGDFLIGVYEGDHHIEEKTLEPIPKEENAEEDDESEWSDDEPEVVREKLYTLGTKLMELGIKNANGVEIIFNINKDGALRVTARDLKTGNAVKGEL
B9 was tested, and the “Ratio (Deletedscore / WTscore)” value (bait BZZ1-2) was 1.071.

B10: YNL229C_2 (protein, UniProt P23202 2-354, looked up)
Transcriptional regulator URE2: MNNNGNQVSNLSNALRQVNIGNRNSNTTTDQSNINFEFSTGVNNNNNNNSSSNNNNVQNNNSGRNGSQNNDNENNIKNTLEQHRQQQQAFSDMSHVEYSRITKFFQEQPLEGYTLFSHRSAPNGFKVAIVLSELGFHYNTIFLDFNLGEHRAPEFVSVNPNARVPALIDHGMDNLSIWESGAILLHLVNKYYKETGNPLLWSDDLADQSQINAWLFFQTSGHAPMIGQALHFRYFHSQKIASAVERYTDEVRRVYGVVEMALAERREALVMELDTENAAAYSAGTTPMSQSRFFDYPVWLVGDKLTIADLAFVPWNNVVDRIGINIKIEFPEVYKWTKHMMRRPAVIKALRGE
With B10 the “Ratio (Deletedscore / WTscore)” value (bait HSE1) was 0.8445.
